Reference: PMC7054857 (The Journal of General Physiology, 2020)
Changes are numbered by the printed parent chain.

How the values were obtained:
Assay in all cases: FRET or BRET
ASIC3(Q269G)-CER = molecular target: T1, ASIC3(Q269G)-CER (rat, UniProt O35240 1-533, Q269G)
T1 sequence (looked up): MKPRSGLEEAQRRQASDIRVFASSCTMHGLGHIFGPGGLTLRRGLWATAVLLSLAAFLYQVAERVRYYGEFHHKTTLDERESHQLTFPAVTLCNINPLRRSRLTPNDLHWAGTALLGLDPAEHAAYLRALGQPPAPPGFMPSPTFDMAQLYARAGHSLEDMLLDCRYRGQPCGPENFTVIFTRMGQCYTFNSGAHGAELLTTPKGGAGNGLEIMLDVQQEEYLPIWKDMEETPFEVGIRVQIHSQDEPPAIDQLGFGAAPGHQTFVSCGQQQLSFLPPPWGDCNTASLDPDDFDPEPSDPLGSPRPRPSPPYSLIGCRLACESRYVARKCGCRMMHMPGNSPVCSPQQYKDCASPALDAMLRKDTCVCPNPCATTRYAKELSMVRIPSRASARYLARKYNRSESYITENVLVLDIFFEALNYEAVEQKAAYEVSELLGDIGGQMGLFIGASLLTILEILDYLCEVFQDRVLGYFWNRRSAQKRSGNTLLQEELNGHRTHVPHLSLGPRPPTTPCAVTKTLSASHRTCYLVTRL

[1] = molecular target: T2, ASIC3-CER (rat acid-sensing ion channel 3 with a C-terminal mCerulean3) (rat, UniProt O35240 1-533)
T2 sequence (looked up): T1 sequence (looked up) with G269Q

ASIC3(44–71)1a-CER = molecular target: T3, ASIC3(44–71)1a-CER (rat, UniProt O35240 1-43; P55926 44-71; O35240 72-533)
T3 chain (looked up): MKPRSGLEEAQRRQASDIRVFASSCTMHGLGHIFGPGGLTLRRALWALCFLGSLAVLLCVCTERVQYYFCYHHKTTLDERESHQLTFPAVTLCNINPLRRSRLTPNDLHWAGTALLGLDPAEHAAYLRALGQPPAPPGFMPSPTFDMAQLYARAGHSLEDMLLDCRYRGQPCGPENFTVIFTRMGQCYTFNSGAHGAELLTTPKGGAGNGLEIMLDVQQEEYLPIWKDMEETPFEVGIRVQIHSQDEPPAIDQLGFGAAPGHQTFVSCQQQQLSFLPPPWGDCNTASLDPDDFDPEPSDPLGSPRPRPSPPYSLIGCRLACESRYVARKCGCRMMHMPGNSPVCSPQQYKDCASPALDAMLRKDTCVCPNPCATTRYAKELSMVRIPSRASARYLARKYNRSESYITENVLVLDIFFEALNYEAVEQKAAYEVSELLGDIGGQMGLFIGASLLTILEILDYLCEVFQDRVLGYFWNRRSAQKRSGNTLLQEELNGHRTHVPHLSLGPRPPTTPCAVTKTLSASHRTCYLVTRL

[2] = molecular target: ASIC3(466–505)1a-CER (rat) (UniProt O35240)
[3] = molecular target: ASIC3(1–43,466–505)1a-CER (rat) (UniProt O35240)
[4] = molecular target: ASIC3(506–519)1a-CER (rat) (UniProt O35240)

B1: STOM-YFP (mouse stomatin with a C-terminal EYFP) (natural protein, UniProt P54116 1-284, looked up)
chain: MSDKRQSSHVQSQRIPESFRENSKTELGACGWILVAASFFFVIITFPISIWICIKIVKEYERVIIFRLGRILQGGAKGPGLFFILPCTDSLIKVDMRTISFDIPPQEVLTKDSVTISVDGVVYYRVQNATLAVANITNADSATRLLAQTTLRNALGTKNLSQILSDREEIAHHMQSTLDDATDDWGIKVERVEIKDVKLPVQLQRAMAAEAEAAREARAKVIAAEGEMNASRALKEASMVITESPAALQLRYLQTLTTIAAEKNSTIVFPLPVDMLQGIMGSNH
FRET efficiency (ASIC3(Q269G)-CER): 10.3%
FRET efficiency [1]: 12.5%
FRET efficiency (ASIC3(44–71)1a-CER): 11.8%
FRET efficiency [2]: 13.1%
FRET efficiency [3]: 9.3%
FRET efficiency [4]: 9.9%
